The values below are quoted from earlier work in paper PMC6952583 (Chembiochem : a European journal of chemical biology, 2019).

For orientation: EC50 means the concentration needed to bring the measured effect to its halfway point.

The data set concerns the target ComD2 receptor (Streptococcus pneumoniae serotype 4, UniProt A0A0H2US84). The settings on record: read-out: ComD2 EC50; TIGR4pcomX::lacZ reporter strain; ref [20].

With “CSP2(15): truncated version of CSP2, starting scaffold (EMRISRIILDFLFLR)”, the EC50 is 21.9 nM.
